US20030059812

Target: 3H-histones isolated from murine erythroleukemia cells

B1: HDAC9a-FLAG (C-terminal FLAG-tagged HDAC9a, expressed from pFLAG-CMV-5b-HDAC9a, plasmid VR2) (protein)
chain: MHSMISSVDVKSEVPVGLEPISPLDLRTDLRMMMPVVDPVVREKQLQQELLLIQQQQQIQKQLLIAEFQKQHENLTRQHQAQLQEHIKELLAIKQQQELLEKEQKLEQQRQEQEVERHRREQQLPPLRGKDRGRERAVASTEVKQKLQEFLLSKSATKDTPTNGKNHSVSRHPKLWYTAAHHTSLDQSSPPLSGTSPSYKYTLPGAQDAKDDFPLRKTASEPNLKVRSRLKQKVAERRSSPLLRRKDGNVVTSFKKRMFEVTESSVSSSSPGSGPSSPNNGPTGSVTENETSVLPPTPHAEQMVSQQRILIHEDSMNLLSLYTSPSLPNITLGLPAVPSQLNASNSLKEKQKCETQTLRQGVPLPGQYGGSIPASSSHPHVTLEGKPPNSSHQALLQHLLLKEQMRQQKLLVAGGVPLHPQSPLATKERISPGIRGTHKLPRHRPLNRTQSAPLPQSTLAQLVIQQQHQQFLEKQKQYQQQIHMNKLLSKSIEQLKQPGSHLEEAEEELQGDQAMQEDRAPSSGNSTRSDSSACVDDTLGQVGAVKVKEEPVDSDEDAQIQEMESGEQAAFMQQPFLEPTHTRALSVRQAPLAAVGMDGLEKHRLVSRTHSSPAASVLPHPAMDRPLQPGSATGIAYDPLMLKHQCVCGNSTTHPEHAGRIQSIWSRLQETGLLNKCERIQGRKASLEEIQLVHSEHHSLLYGTNPLDGQKLDPRILLGDDSQKFFSSLPCGGLGVDSDTIWNELHSSGAARMAVGCVIELASKVASGELKNGFAVVRPPGHHAEESTAMGFCFFNSVAITAKYLRDQLNISKILIVDLDVHHGNGTQQAFYADPSILYISLHRYDEGNFFPGSGAPNEVRFISLEPHFYLYLSGNCIA
HDAC enzymatic activity (3H-acetic acid released from 3H-histones): HDAC9a-FLAG deacetylated 3H-acetyl-histones
